From patent US20230391872A1 (ANAPTYSBIO, published 2023)

Tests used:
[1] = molecular target: T1, human BTLA on cells (stably transfected 293c18 cells; human peripheral blood T and B cells) (human, UniProt Q7Z6A9 31-289); assay: flow cytometry, DyLight 650-labeled 6G3 IgG4 on human peripheral blood CD20+ B cells
T1 construct: whole, on cells; the cells are named under assay; also called cell surface BTLA; full-length human BTLA
Description: PBMCs were washed and incubated at 2×10⁷ cells/ml in FACS buffer (PBS, 1% BSA, 0.02% sodium azide) with Human BD Fc Block (2.5 μg/1×10⁶ cells, BD Biosciences) and LIVE/DEAD® Fixable Yellow Dead Cell Stain (30 μl, ThermoFisher Scientific) for 10 minutes on ice. Cells were washed once in FACS buffer, resuspended in FACS buffer at 1×10⁷ cells/ml and the following phenotyping antibodies added: Alexa Fluor 488-anti-human CD3E clone SK7, Brilliant Violet 421-anti-human CD4 clone OKT4, Brilliant Violet 785-anti-human CD8 clone SK1, and Brilliant Violet 570-anti-human CD20 clone 2H7 (50 μl each; all from BioLegend, Inc.). […] Samples were washed twice in FACS buffer, resuspended in 150 μl/well FACS buffer, and analyzed for fluorescence on a NovoCyte Flow Cytometer (ACEA Biosciences, Inc.). Data were analyzed using NovoExpress Software (ACEA Biosciences, Inc.). Median fluorescence intensities of anti-BTLA or isotype staining on gated CD4⁺ T cells (FIG. 4), CD8⁺ T cells (FIG. 4), or CD20⁺ B cells (FIG. 4) were graphed and curves fit with log(agonist) vs. response (three parameters) least squares fit for EC₅₀ calculation in GraphPad Prism (GraphPad Software, Inc.).

[2] = molecular target: T2, cynomolgus monkey BTLA on cells (stably transfected 293c18 clone 1G5); cynomolgus peripheral blood T and B … (cynomolgus monkey, UniProt A0A2K5W7M7 31-289); assay: flow cytometry (MFI) on 293c18 cells stably expressing cynomolgus monkey BTLA, goat anti-human kappa-PE detection, four-parameter fit [right panel (Cy BTLA 293c18 cells), EC50 box]
T2 construct: whole, on cells; also called cynomolgus monkey BTLA 293c18 cells
T2 sequence: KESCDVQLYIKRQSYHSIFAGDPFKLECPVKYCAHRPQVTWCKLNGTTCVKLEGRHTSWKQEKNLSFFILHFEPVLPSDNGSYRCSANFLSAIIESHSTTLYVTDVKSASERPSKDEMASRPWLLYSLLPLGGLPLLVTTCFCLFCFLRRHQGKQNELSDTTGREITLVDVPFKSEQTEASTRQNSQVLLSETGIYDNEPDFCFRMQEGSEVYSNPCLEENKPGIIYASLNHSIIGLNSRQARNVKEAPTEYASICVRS
Description: 293c18 cell clone 1E4 stably expressing human BTLA construct or clone 1G5 stably expressing cynomolgus monkey BTLA were harvested with Accutase solution (Millipore Sigma/Sigma-Aldrich) and washed once with Phosphate-Buffered Saline, 1% BSA. 293c18 cynomolgus monkey BTLA cells were loaded with the lipophilic carbocyanine dye, DiD (2 μM, 1,1′-dioctadecyl-3,3,3′,3′-tetramenthylindodicarbocyanine; ThermoFisher Scientific) by rocking gently for 10 minutes at room temperature. DiD-stained cells were washed in PBS, 1% BSA and equal amounts of human BTLA 293c18 cells and cynomolgus monkey BTLA 293c18-DiD-stained cells were mixed. Cells (2×10⁵ total cells/sample) were incubated with the indicated concentrations of purified 6G3 IgG4 (two production lots, APE10840.03 and APE10840.04 (H Chain SEQ ID NO: 144, L Chain SEQ ID NO: 174)) or human IgG4 isotype control antibody specific for hen egg lysozyme with gentle shaking for 10 minutes at 4° C. in FACS buffer (PBS, 1% BSA, 0.02% sodium azide). […] Cells were washed and resuspended in FACS buffer and analyzed for fluorescence on a BD FACSArray (BD Biosciences). DiD stained cells expressing cynomolgus monkey BTLA (FIG. 3) were analyzed for median fluorescence intensity (MFI) separately from cells expressing human BTLA (FIG. 3). […]

[3] = molecular target: T3, human BTLA ECD-his (monomeric human BTLA-his) (human, UniProt Q7Z6A9 31-157); assay: Kinetic Exclusion Assay (KinExA 3000), solution phase, 6G3 IgG4 APE10840.04 at 100 pM, human BTLA ECD-his titrated
T3 construct: extracellular domain; also called human BTLA extracellular domain
T3 sequence (looked up): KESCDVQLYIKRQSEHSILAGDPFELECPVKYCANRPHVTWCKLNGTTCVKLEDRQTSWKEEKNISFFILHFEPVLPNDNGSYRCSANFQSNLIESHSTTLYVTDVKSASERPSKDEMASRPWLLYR
Description: Solution-based affinity measurements of 6G3 IgG4 (APE10840.04 (H Chain SEQ ID NO: 144, L Chain SEQ ID NO: 174)) binding to BTLA were determined on a KinExA 3000 (Sapidyne Instruments). Azlactone beads (ThermoFisher Scientific) were coated with human BTLA ECD-his (30 μg/ml) or cynomolgus monkey BTLA ECD-his (20 μg/ml) in 50 mM Na2CO3 for 2 hours at room temperature and blocked with 10 mg/ml BSA. 6G3 IgG4 APE10840.04 concentration was kept constant at 100 pM for binding in both human and cynomolgus monkey BTLA experiments. Human or cynomolgus monkey BTLA ECD-his was added at 25° C. in 2.5-fold dilutions from 1000 nM to 68 fM. Sample sets were equilibrated at 4° C. for 72 hours and brought to room temperature for 6 hours before capturing free antibody with BTLA-coupled Azlactone beads. […] Maximum and background signals were determined on samples with 6G3 only and buffer only, respectively. Data were analyzed using KinExA Pro Software 3.2.6.

EC50 [1]: ~0.5 nM
EC50 [2]: 2.3 nM
Kd [3]: ~0.41 nM
B1: 6G3 IgG4 anti-BTLA antibody (APE10840 / APE12839 / APE13308) (antibody, V domains shown)
VH: QVQLVQSGAEVKKPGSSVKVSCKASGYVFSTSWMNWVRQAPGQGLEWMGRIYPGDADTNYVGKFKGRVTITADKSTTTAYMELSSLRSEDTAVYFCAKSGTFNFGNYRWYFDVWGKGTTVTVSS
VL: AIQLTQSPSSLSASVGDRVTITCRVSENIYSHLAWYQQKPGKAPKLLIYAATNLALGVPSRFSGSGSGTDYTLTISSLQPEDFATYYCQLFWGPPLTFGGGTKVEIKR
notes: Humanized antibody from a mouse hybridoma, tested as human IgG4 (detected with anti-human kappa); Some assays used labelled lots (DyLight 650, AF647, biotin, DyL488); also called 6G3 antibody; APE10840.03
